{"source": "patent US20200239541A1", "about": "(XYPHOS BIOSCIENCES, published 2020)", "binders": {"B1": {"name": "biotinylated human NKG2D (Example 1) (receptor, UniProt P26718 78-216, looked up)", "chain": "FLNSLFNQEVQIPLTESYCGPCPKNWICYKNNCYQFFDESKNWYESQASCMSQNASLLKVYSKEDQDLLKLVKSYHWMGLVHIPTNGSWQWEDGSILSPNLLTIIEMQKGDCALYASSFKGYIENCSTPNTYICMQRTV", "notes": "also called recombinant biotinylated NKG2D"}, "B2": {"name": "DSM25 α1-α2-α3-Fv fusion (SEQ ID NO 43) (ligand)", "chain": "EPHSLRYNLTVLSWDGSVQSGFLTEVHLDGQPFLRCDRQKCRAKPQGQWAEDVLGNKTWDRETRDLTGWGKDLRMTLAHIKDQKEGLHSLQEIRVCEIHEDNSTRSSQHFYYDGELFLSQNLETLEWTMPQSSRAQTLAMNVRNFLKEDAMETDTHYHAMRADCLSELRRYLKSGVVLRRTVPPMVQVTRSEASGGSGDRVTITCRASQDVSTAVAWYQQKPGKAPKLLIYSASFLYSGVPSRFSGSGSGTDFTLTISSLQPEDFATYYCQQSYTTPPTFGQGTKVEIKGGSSRSSSSGGGGSGGGGEVQLVESGGGLVQPGGSLRLSCAASGFTFTSTGISWVRQAPGKGLEWVGRIYPTNGSTNYADSVKGRFTISADTSKNTAYLQMNSLRAEDTAVYYCARTYGIYDLYVDYTEYVMDYWGQGTLVTVSSGGSSRSSSSGGGGSGGGGDIQMTQSPSSLSASGGSGQITVTCRASGFYPWNITLSWRQDGVSLSHDTQQWGDVLPDGQGTYQTWVATRISQGEEQRFTCYMEHSGQHSTHPVPSGKGSHHHHHH"}, "B3": {"name": "rituximab-ULBP2.R MicAbody (bispecific antibody, human IgG1, kappa)", "heavy": "not shown", "light": "QIVLSQSPAILSASPGEKVTMTCRASSSVSYIHWFQQKPGSSPKPWIYATSNLASGVPVRFSGSGSGTSYSLTISRVEAEDAATYYCQQWTSNPPTFGGGTKLEIKTVAAPSVFIFPPSDEQLKSGTASVVCLLNNFYPREAKVQWKVDNALQSGNSQESVTEQDSKDSTYSLSSTLTLSKADYEKHKVYACEVTHQGLSSPVTKSFNRGECAPTSSSGGGGSEPHSLSYDITVIPKFRPGPRWCAVQGQVDEKTFLHYDCGNKTVTPVSPLGKKLNVTTAWKAQNPVLREVVDILTEQLWDIQLENYTPKEPLTLQARMSCEQKAEGHSSGSWQFSFDGQIFLLFDSEKRMWTTVHPGARKMKEKWENDKVVATLLWGWSMGDCIGWLEDFLMGMDSTLEPS", "notes": "also called rituximab-MicAbody with ULBP2 variant R"}, "B4": {"name": "ULBP2.wt rituximab-MicAbody (bispecific antibody, human IgG1, kappa)", "heavy": "not shown", "light": "QIVLSQSPAILSASPGEKVTMTCRASSSVSYIHWFQQKPGSSPKPWIYATSNLASGVPVRFSGSGSGTSYSLTISRVEAEDAATYYCQQWTSNPPTFGGGTKLEIKRTVAAPSVFIFPPSDEQLKSGTASVVCLLNNFYPREAKVQWKVDNALQSGNSQESVTEQDSKDSTYSLSSTLTLSKADYEKHKVYACEVTHQGLSSPVTKSFNRGECAPTSSSGGGGSEPHSLSYDITVIPKFRPGPRWCAVQGQVDEKTFLHYDCGNKTVTPVSPLGKKLNVTTAWKAQNPVLREVVDILTEQLRDIQLENYTPKEPLTLQARMSCEQKAEGHSSGSWQFSFDGQIFLLFDSEKRMWTTVHPGARKMKEKWENDKVVAMSFHYFSMGDCIGWLEDFLMGMDSTLEPS", "notes": "also called ULBP2 MicAbody"}, "B5": {"name": "rituximab-ULBP2.S3 MicAbody (bispecific antibody, human IgG1, kappa)", "heavy": "not shown", "light": "B4 light with R302W, M376T, S377K, F378L, H379Y, Y380L, F381W", "notes": "also called ULBP2.S3 as a MicAbody"}}, "key": {"[1]": {"biological_target": "T1, WT α1-α2 domain (soluble wild-type MICA, titrated) (UniProt Q29983 24-204)", "T1 construct": "domain: α1-α2; also called WT MICA; WT NKG2DL", "T1 sequence (looked up)": "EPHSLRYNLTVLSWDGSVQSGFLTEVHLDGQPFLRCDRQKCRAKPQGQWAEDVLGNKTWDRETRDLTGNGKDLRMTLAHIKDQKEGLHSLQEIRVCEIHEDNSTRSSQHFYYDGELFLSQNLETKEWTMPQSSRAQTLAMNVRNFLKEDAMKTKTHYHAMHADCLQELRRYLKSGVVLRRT", "experiment": "BLI (Octet), Kd = kOFF/kON"}, "[2]": {"biological_target": "T1, WT α1-α2 domain (soluble wild-type …)", "experiment": "BLI (Octet), biotinylated human NKG2D coated, 100 nM analyte"}, "[3]": {"biological_target": "T2, His-avitag natural NKG2D ectodomain, biotinylated (human)", "T2 construct": "also called natural form of the ectodomain of NKG2D", "T2 chain": "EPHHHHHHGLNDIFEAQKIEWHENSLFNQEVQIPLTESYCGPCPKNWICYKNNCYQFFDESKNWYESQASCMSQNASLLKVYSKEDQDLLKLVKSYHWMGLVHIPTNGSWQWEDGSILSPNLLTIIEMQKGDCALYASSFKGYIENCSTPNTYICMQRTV", "experiment": "BLI (Octet), biotinylated natural NKG2D ectodomain coated, 100 nM fusion", "experimental": "In order to characterize and compare the kinetic binding parameters of the natural and 8 variant α1-α2 domains to natural NKG2D, we measured their binding to surface coated biotinylated natural NKG2D ectodomain using biolayer interferometry (Octet) at 100 nM of each of the α1-α2-α3-Fv fusion proteins."}, "[4]": {"biological_target": "T3, Fc-NKG2D.Y152A (human)", "T3 construct": "also called eNKG2D A|Y; Fc-NKG2D.YA", "experiment": "ELISA of rituximab-MicAbodies"}, "[5]": {"biological_target": "T4, Fc-NKG2D.wt (human)", "T4 construct": "also called NKG2D.wt Y|Y; natural Fc-NKG2D", "experiment": "ELISA (called Kd in the text)", "experimental": "(§1) The binding affinities of α1-α2 variants to the extracellular domains of natural (wild-type) NKG2D and non-natural eNKG2D proteins were analyzed using a plate-based ELISA method. Each of the SEC fractionated natural Fc-NKG2D and non-natural Fc-eNKG2D fusions were coated overnight at 4° C. onto separate wells of Nunc Maxisorp 96 well plates (Thermo Fisher Scientific, Waltham, Mass.) using a coating concentration of 1 μg/mL in phosphate-buffered saline (PBS). The plates were washed three times in PBS/0.05% Tween-20 (PBS-T) at 20-22° C., and blocked with 0.5% bovine serum albumin in PBS (PBS-B) for 2 hours at 20-22° C. MicAbodies were titrated against the plate-bound natural or non-natural Fc-NKG2D fusions for 60 minutes at 20-22° C. in PBS/0.5% bovine serum albumin (BSA)/0.05% Tween-20 (PBS-BT), washed 3 times with PBS-T at 20-22° C., and the bound bispecific proteins detected using an HRP-conjugated anti-human kappa in PBS-BT (Abcam, Cambridge Mass.) and developed with 1-Step™ Ultra TMB ELISA Substrate Solution (Thermo Fisher Scientific, Waltham, Mass.)."}, "[6]": {"biological_target": "T4, Fc-NKG2D.wt", "experiment": "ELISA, Fc-NKG2D coated, MicAbody titrated from 300 nM", "experimental": "as §1"}, "[7]": {"biological_target": "T5, Fc-eNKG2D2 (Y152S) (human)", "T5 construct": "also called eNKG2D2 S|Y; not shown: human IgG1 Fc (without Fab domains)", "experiment": "ELISA, Fc-NKG2D coated, MicAbody titrated from 300 nM", "experimental": "as §1"}, "[8]": {"biological_target": "T6, Fc-eNKG2D3 (Y152T) (human)", "T6 construct": "also called eNKG2D3 T|Y", "experiment": "ELISA, Fc-NKG2D coated, MicAbody titrated from 300 nM", "experimental": "as §1"}, "[9]": {"biological_target": "T7, Fc-eNKG2D4 (Y152V) (human)", "T7 construct": "also called eNKG2D4 V|Y", "experiment": "ELISA, Fc-NKG2D coated, MicAbody titrated from 300 nM", "experimental": "as §1"}, "[10]": {"biological_target": "T8, Fc-eNKG2D14 (Y152L) (human)", "T8 construct": "also called eNKG2D14 L|Y", "experiment": "ELISA, Fc-NKG2D coated, MicAbody titrated from 300 nM", "experimental": "as §1"}, "[11]": {"biological_target": "T9, Fc-eNKG2D5 (Y152A/Y199F) (human)", "T9 construct": "also called eNKG2D5 A|F; Fc-NKG2D.AF", "T9 sequence (chain, as listed by the source Y152A Y199F Y152A Y199F limits assumed)": "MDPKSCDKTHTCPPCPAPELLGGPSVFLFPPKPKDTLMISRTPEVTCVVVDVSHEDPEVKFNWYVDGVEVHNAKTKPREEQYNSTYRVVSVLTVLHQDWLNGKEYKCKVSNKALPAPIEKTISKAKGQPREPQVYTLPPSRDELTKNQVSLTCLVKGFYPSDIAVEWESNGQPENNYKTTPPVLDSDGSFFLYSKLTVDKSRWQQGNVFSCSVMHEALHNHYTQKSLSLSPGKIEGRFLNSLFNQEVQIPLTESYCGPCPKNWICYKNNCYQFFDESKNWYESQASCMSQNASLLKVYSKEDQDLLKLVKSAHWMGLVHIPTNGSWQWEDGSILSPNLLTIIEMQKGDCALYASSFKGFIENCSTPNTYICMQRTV", "experiment": "ELISA, Fc-eNKG2D coated, MicAbody titrated from 300 nM", "experimental": "as §1"}, "[12]": {"biological_target": "T10, Fc-eNKG2D6 (Y152L/Y199F) (human)", "T10 construct": "also called eNKG2D6 L|F", "T10 sequence (chain, as listed by the source Y152L Y199F Y152L Y199F limits assumed)": "as the sequence (chain, as listed by the source Y152A Y199F Y152A Y199F limits assumed) above, with A312L counted along it", "experiment": "ELISA, Fc-eNKG2D coated, MicAbody titrated from 300 nM", "experimental": "as §1"}, "[13]": {"biological_target": "T11, Fc-eNKG2D7 (Y152S/Y199F) (human)", "T11 construct": "also called eNKG2D7 S|F", "T11 sequence (chain, as listed by the source Y152S Y199F Y152S Y199F limits assumed)": "as the sequence (chain, as listed by the source Y152A Y199F Y152A Y199F limits assumed) above, with A312S counted along it", "experiment": "ELISA, Fc-eNKG2D coated, MicAbody titrated from 300 nM", "experimental": "as §1"}, "[14]": {"biological_target": "T12, Fc-eNKG2D8 (Y152T/Y199F) (human)", "T12 construct": "also called eNKG2D8 T|F", "T12 sequence (chain, as listed by the source Y152T Y199F Y152T Y199F limits assumed)": "as the sequence (chain, as listed by the source Y152A Y199F Y152A Y199F limits assumed) above, with A312T counted along it", "experiment": "ELISA, Fc-eNKG2D coated, MicAbody titrated from 300 nM", "experimental": "as §1"}, "[15]": {"biological_target": "T13, Fc-eNKG2D9 (Y152V/Y199F) (human)", "T13 construct": "also called eNKG2D9 V|F", "T13 sequence (chain, as listed by the source Y152V Y199F Y152V Y199F limits assumed)": "as the sequence (chain, as listed by the source Y152A Y199F Y152A Y199F limits assumed) above, with A312V counted along it", "experiment": "ELISA, Fc-eNKG2D coated, MicAbody titrated from 300 nM", "experimental": "as §1"}, "[16]": {"biological_target": "T14, Fc-eNKG2D12 (Y152D/Y199D) (human)", "T14 construct": "also called eNKG2D12 D|D", "T14 sequence (chain, as listed by the source Y152D Y199D Y152D Y199D limits assumed)": "as the sequence (chain, as listed by the source Y152A Y199F Y152A Y199F limits assumed) above, with A312D, F359D counted along it", "experiment": "ELISA, Fc-eNKG2D coated, MicAbody titrated from 300 nM", "experimental": "as §1"}, "[17]": {"biological_target": "T15, Fc-eNKG2D13 (Y152E/Y199E) (human)", "T15 construct": "also called eNKG2D13 E|E", "T15 sequence (chain, as listed by the source Y152E Y199E Y152E Y199E limits assumed)": "as the sequence (chain, as listed by the source Y152A Y199F Y152A Y199F limits assumed) above, with A312E, F359E counted along it", "experiment": "ELISA, Fc-eNKG2D coated, MicAbody titrated from 300 nM", "experimental": "as §1"}, "[18]": {"biological_target": "T4, Fc-NKG2D.wt", "experiment": "ELISA of rituximab-MicAbodies"}, "[19]": {"biological_target": "T9, Fc-eNKG2D5 (Y152A/Y199F)", "experiment": "ELISA of rituximab-MicAbodies"}, "[20]": {"biological_target": "T3, Fc-NKG2D.Y152A", "experiment": "ELISA and Octet, bispecific antibody fused format"}}, "note": "Changes are numbered by the printed parent chain."}
{"binder": "B1", "values": [{"measurement": "Kd", "setting": "[1]", "result": 13.8, "unit": "nM"}, {"measurement": "koff", "setting": "[2]", "result": 0.0018, "unit": "s⁻¹"}, {"measurement": "kon", "setting": "[2]", "result": 130000, "unit": "M⁻¹ s⁻¹"}]}
{"binder": "B2", "values": [{"measurement": "binding result", "setting": "[3]", "result": "binds"}]}
{"binder": "B3", "values": [{"measurement": "binding result", "setting": "[4]", "result": "no binding"}]}
{"binder": "B4", "values": [{"measurement": "EC50", "setting": "[5]", "result": 1.4, "unit": "nM"}, {"measurement": "EC50", "setting": "[6]", "result": 1.41, "unit": "nM"}, {"measurement": "EC50", "setting": "[7]", "result": 34.8, "unit": "nM"}, {"measurement": "EC50", "setting": "[8]", "result": 31.1, "unit": "nM"}, {"measurement": "EC50", "setting": "[9]", "result": 35.8, "unit": "nM"}, {"measurement": "EC50", "setting": "[10]", "result": 87.6, "unit": "nM"}, {"measurement": "binding result", "setting": "[11]", "result": "no binding (tested: 300 nM)"}, {"measurement": "binding result", "setting": "[12]", "result": "no binding (tested: 300 nM)"}, {"measurement": "binding result", "setting": "[13]", "result": "no binding (tested: 300 nM)"}, {"measurement": "binding result", "setting": "[14]", "result": "no binding (tested: 300 nM)"}, {"measurement": "binding result", "setting": "[15]", "result": "no binding (tested: 300 nM)"}, {"measurement": "binding result", "setting": "[16]", "result": "no binding (tested: 300 nM)"}, {"measurement": "binding result", "setting": "[17]", "result": "no binding (tested: 300 nM)"}]}
{"binder": "B5", "values": [{"measurement": "binding result", "setting": "[18]", "result": "no binding"}, {"measurement": "binding result", "setting": "[19]", "result": "no binding"}, {"measurement": "binding result", "setting": "[20]", "result": "binds"}]}
